Where a chain is given by its changes, count along the chain named. Each block holds one molecule with its values, some of them ahead of it.
Experiments:
[1] = molecular target: urokinase plasminogen activator receptor (uPAR) (UniProt Q03405); test: direct binding assay
[2] = molecular target: T1, soluble uPAR (suPAR) (UniProt Q03405 23-305, limits assumed); test: SPR (Biacore 2000), antibody captured on protein A/G surface, suPAR as analyte, 25 C, 1:1 Langmuir fit
T1 construct: Analyte in the Biacore capture assay
T1 sequence (Q03405 23-305 limits assumed): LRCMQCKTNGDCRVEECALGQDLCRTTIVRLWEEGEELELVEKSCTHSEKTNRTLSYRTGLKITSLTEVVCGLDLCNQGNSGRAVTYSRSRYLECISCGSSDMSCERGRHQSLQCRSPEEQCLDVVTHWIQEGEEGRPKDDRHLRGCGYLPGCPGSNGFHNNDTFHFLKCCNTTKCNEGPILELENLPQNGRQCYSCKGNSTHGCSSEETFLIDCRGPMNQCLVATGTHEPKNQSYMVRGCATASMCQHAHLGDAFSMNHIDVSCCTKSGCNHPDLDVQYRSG
Procedure: The HE™ variants were diluted to 1 μg/mL and injected over a protein A/G surface. Antibody injections were optimized to produce antibody densities of 100-200 RU.
Six serial 3-fold dilutions of soluble uPAR (suPAR) were prepared in running buffer (PBS), and each dilution was injected in triplicate in random order at 25° C. Buffer injections were evenly distributed throughout the run. The sample injections were double-referenced against the blank flow cells and buffer injections to correct for any bulk shift or non-specific binding. Data were analyzed with BiaEvaluation software from Biacore®. Sensorgrams were fit utilizing a 1:1 Langmuir model.

urokinase plasminogen activator receptor (uPAR), sequence (Q03405 23-305 limits assumed): as above

B1: HE ™ ATN-1 (antibody, IgG1, V domains shown)
VH: EVQLVQSGPEVVKTGASVKISCKASGYSFTSYYMHWVKQAHGQGLEWIGEINPYNGGASYNQKIKGRATFTVDTSTRTAYMEFSSLRSEDTAVYYCARSIYGHSVLDYWGQGTLVTVSS
VL: DVVMTQSPLSLSVTIGEPASISCRSSQSLLDSDGKTYLNWLLQKPGQSPKRLIYLVSKRDSGVPDRFSGSGSGTDFTLKISRVEAEDVGVYYCWQGTHFPLTFGQGTKLEIK
notes: V regions cloned into transient expression vectors with human gamma-1 and kappa constant region modules (IgG1, kappa); made in HEK293E cells
Kd [2]: 0.28 nM

B3: HE ™ ATN-2 (antibody, IgG1, V domains shown)
VH: B1 VH
VL: B1 VL with K50Q
notes: Human gamma-1 and kappa constant region modules (IgG1, kappa); made in HEK293E cells
Kd [2]: 0.38 nM

B4: HE ™ ATN-3 (antibody, IgG1, V domains shown)
VH: B1 VH with V12K, K38R, K65Q, R77S
VL: B1 VL
notes: as for B3
Kd [2]: 0.28 nM

Other lines, results leading:

Kd [1]: 1 nM
Molecule: mouse monoclonal antibody ATN-658

Kd [2]: 0.39 nM
B2: HE ™ ATN-4 (renamed MNPR-101) (antibody, human IgG1, kappa, V domains shown)
VH: B1 VH with V12K, K38R, K65Q, R77S
VL: DVVMTQSPLSLSVTIGEPASISCRSSQSLLDSDGKTYLNWLLQKPGQSPQRLIYLVSKRDSGVPDRFSGSGSGTDFTLKISRVEAEDVGVYYCWQGTHFPLTFGQGTKLEIKR
notes: IgG1 kappa; In the Biacore assay the transiently expressed (HEK293E), unconjugated antibody was used; also called mAb MNPR-101; humanized mAb MNPR-101

— patent publication US20220409751A1 (NORTHSTAR MEDICAL TECHNOLOGIES, published 2022)
